Measured values as given in US20240279318A1 (NANJING LEGEND BIOTECH, published 2024).
Where a chain is given by its changes, count along the chain named.

Assays:
[1] = target: T1, AFP158/HLA-A*02:01 complex (human); assay: SPR, fold vs AS170036 VL1VH1
T1 construct: flowed as analyte in SPR
Method: (§1) The experiment was carried out as follows. The crude scFv protein were captured onto the sensorchip. Different concentrations (320, 160, 40 nM) of AFP158/HLA-A*02:01 complex flowed over the sensorchip surface, and were allowed to bind the antibody fragment for 100 s followed by injection of the running buffer to allow dissociation of the complex. On-rate (kd) and off-rate (kd) were calculated based on association and dissociation curve, and were used to estimate the equilibrium dissociation constant (KD).

[2] = target: T1, AFP158/HLA-A*02:01 complex; assay: SPR, crude scFv captured, pMHC analyte;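 also: Peptide-MHC complex at several concentrations passed over captured scFv, association then buffer-driven dissociation, on- and off-rates fitted from the curves and KD estimated from them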
Method: as §1

[3] = target: T2, AFP158/HLA-A*02:01 complex (human); assay: SPR, KD ratio to AS170036 VL1VH1;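 also: crude scFv captured on a sensor chip, peptide–HLA complex passed over at several concentrations, association then buffer dissociation, KD derived from on- and off-rates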
T2 construct: flowed over the chip in SPR; also called AFP158 pro
Method: as §1

[4] = target: T2, AFP158/HLA-A*02:01 complex; assay: SPR, KD ratio to AS170036 VL1VH1; remark: listed apart in the source;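 also: crude scFv captured on a sensor chip, peptide–HLA complex passed over at several concentrations, association then buffer dissociation, KD derived from on- and off-rates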
[5] = target: T2, AFP158/HLA-A*02:01 complex; assay: SPR, scFv captured, pMHC in flow;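 also: complex injected at several concentrations over crude scFv, association then running-buffer dissociation, KD estimated from kinetic on- and off-rate constants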
Method: as §1

[6] = target: T2, AFP158/HLA-A*02:01 complex; assay: SPR, scFv captured, pMHC in flow; remark: listed apart in the source;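 also: complex injected at several concentrations over crude scFv, association then running-buffer dissociation, KD estimated from kinetic on- and off-rate constants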
Method: as §1

B1: AS170036 VL1VH1-VHG56F (scFv)
scFv: QSALTQPRSVSGSPGQSVTISCAGTSSDVGSENYVSWYQQHPGKAPKLMIYQVNKRASGVPDRFSGSKSGNTASLTISGLQAEDEADYYCASYRSSDHNIVFGGGTKLTVLGGGGSGGGGSGGGGSEVQLVESGGGLVQPGGSLRLSCAASGFTFSSYAMSWVRQAPGKGLEWVSTINSGTFSPYYADSVKGRFTISRDNSKNTLYLQMNSLRAEDTAVYYCAKNFFDGSWFLGPPAMDYWGQGTLVTVSSHHHHHH
B1 gave an Affinity increase [1] of 2.3 fold, a Kd [2] of 98 nM and a koff [2] of 0.022 s⁻¹. It also gave a kon [2] of 230000 M⁻¹ s⁻¹.

B2: AS170036 VL1VH1-VHS57M (scFv)
scFv: B1 scFv with F182G, S183M
Binder B2 has an Affinity increase [1] of 2.7 fold, a Kd [2] of 90 nM and a koff [2] of 0.025 s⁻¹. The kon [2] was 280000 M⁻¹ s⁻¹.

B3: LH98T (scFv)
scFv: B1 scFv with H98T, F182G
notes: AS170036 VL1VH1 scFv mutein; also called AS170036 VL1VH1-VLH98T
B3 was tested, and the Affinity increase [3] was 2.9 fold, the Affinity increase [4] was 2.9 fold and the Kd [5] was 84 nM. The Kd [6] was 84 nM.

B4: LH98S (scFv)
scFv: B1 scFv with H98S, F182G
notes: AS170036 VL1VH1 scFv mutein
Binder B4 has an Affinity increase [3] of 1.4 fold, an Affinity increase [4] of 1.4 fold and a Kd [5] of 180 nM. It also gave a Kd [6] of 180 nM.

B5: LY93M (scFv)
scFv: B1 scFv with Y93M, F182G
notes: AS170036 VL1VH1 scFv mutein
B5 showed an Affinity increase [3] of 1.1 fold, an Affinity increase [4] of 1.1 fold and a Kd [5] of 230 nM. The Kd [6] was 230 nM.

B6: LH98V (scFv)
scFv: B1 scFv with H98V, F182G
notes: AS170036 VL1VH1 scFv mutein; also called AS170036 VL1VH1-VLH98V
For B6, the Affinity increase [3] was 3.2 fold, the Affinity increase [4] was 3.2 fold and the Kd [5] was 78 nM. For the same binder, the Kd [6] was 78 nM.

B7: AS170036 VL1VH1-VHS57Q (scFv)
scFv: B1 scFv with F182G, S183Q
Work on B7 yielded an Affinity increase [1] of 2.4 fold, a Kd [2] of 100 nM and a koff [2] of 0.022 s⁻¹. It also gave a kon [2] of 210000 M⁻¹ s⁻¹.

B8: AS170036 VL1VH1-VHG108D (scFv)
scFv: B1 scFv with F182G, G234D
B8 was tested, and the Affinity increase [1] was 5.5 fold, the Kd [2] was 42 nM and the koff [2] was 0.015 s⁻¹. For the same binder, the kon [2] was 370000 M⁻¹ s⁻¹.

B9: AS170036 VL1VH1-VHS57R (scFv)
scFv: B1 scFv with F182G, S183R
For B9, the Affinity increase [1] was 2.8 fold, the Kd [2] was 88 nM and the koff [2] was 0.017 s⁻¹. For the same binder, the kon [2] was 200000 M⁻¹ s⁻¹.

B10: AS170036 VL1VH1-VLE32W (scFv)
scFv: B1 scFv with E32W, F182G
In the case of B10, the Affinity increase [1] is reported as 2.4 fold, the Kd [2] is reported as 100 nM and the koff [2] is reported as 0.016 s⁻¹. It also gave a kon [2] of 150000 M⁻¹ s⁻¹.

B11: LY93I (scFv)
scFv: B1 scFv with Y93I, F182G
notes: AS170036 VL1VH1 scFv mutein
B11 was tested, and the Affinity increase [3] was 0.6 fold, the Affinity increase [4] was 0.6 fold and the Kd [5] was 440 nM. The Kd [6] was 440 nM.

B12: AS170036 VL1VH1-VLH98A (scFv)
scFv: B1 scFv with H98A, F182G
With B12 the Affinity increase [1] was 2.3 fold, the Kd [2] was 110 nM and the koff [2] was 0.027 s⁻¹. For the same binder, the kon [2] was 260000 M⁻¹ s⁻¹.

B13: LH98P (scFv)
scFv: B1 scFv with H98P, F182G
notes: AS170036 VL1VH1 scFv mutein; also called AS170036 VL1VH1-VLH98P
Binder B13 has an Affinity increase [3] of 3.5 fold, an Affinity increase [4] of 3.5 fold and a Kd [5] of 70 nM. It also gave a Kd [6] of 70 nM.

B14: LH98R (scFv)
scFv: B1 scFv with H98R, F182G
notes: AS170036 VL1VH1 scFv mutein
B14 showed an Affinity increase [3] of 1.1 fold, an Affinity increase [4] of 1.1 fold and a Kd [5] of 220 nM. For the same binder, the Kd [6] was 220 nM.

B15: LH98M (scFv)
scFv: B1 scFv with H98M, F182G
notes: AS170036 VL1VH1 scFv mutein
In the case of B15, the Affinity increase [3] is reported as 1.8 fold, the Affinity increase [4] is reported as 1.8 fold and the Kd [5] is reported as 140 nM. It also gave a Kd [6] of 140 nM.

B16: AS170036 VL1VH1-VHG108S (scFv)
scFv: B1 scFv with F182G, G234S
In the case of B16, the Affinity increase [1] is reported as 2.8 fold, the Kd [2] is reported as 96 nM and the koff [2] is reported as 0.026 s⁻¹. The kon [2] was 270000 M⁻¹ s⁻¹.

B17: AS170036 VL1VH1-VLH98F (scFv)
scFv: B1 scFv with H98F, F182G
With B17 the Affinity increase [1] was 3.3 fold, the Kd [2] was 74 nM and the koff [2] was 0.033 s⁻¹. It also gave a kon [2] of 450000 M⁻¹ s⁻¹.

B18: AS170036 VL1VH1-VHG108N (scFv)
scFv: B1 scFv with F182G, G234N
For B18, the Affinity increase [1] was 2 fold, the Kd [2] was 140 nM and the koff [2] was 0.045 s⁻¹. For the same binder, the kon [2] was 330000 M⁻¹ s⁻¹.

B19: AS170036 VL1VH1-VHG56Y (scFv)
scFv: B1 scFv with F182Y
For B19, the Affinity increase [1] was 6.6 fold, the Kd [2] was 35 nM and the koff [2] was 0.006 s⁻¹. The kon [2] was 170000 M⁻¹ s⁻¹.

B20: AS170036 VL1VH1-VHG108M (scFv)
scFv: B1 scFv with F182G, G234M
B20 gave an Affinity increase [1] of 4.7 fold, a Kd [2] of 58 nM and a koff [2] of 0.013 s⁻¹. For the same binder, the kon [2] was 220000 M⁻¹ s⁻¹.

B21: LY93Q (scFv)
scFv: B1 scFv with Y93Q, F182G
notes: AS170036 VL1VH1 scFv mutein
In the case of B21, the Affinity increase [3] is reported as 0.6 fold, the Affinity increase [4] is reported as 0.6 fold and the Kd [5] is reported as 380 nM. For the same binder, the Kd [6] was 380 nM.

B22: AS170036 VL1VH1-VHS57H (scFv)
scFv: B1 scFv with F182G, S183H
B22 was tested, and the Affinity increase [1] was 6.9 fold, the Kd [2] was 35 nM and the koff [2] was 0.0061 s⁻¹. The kon [2] was 170000 M⁻¹ s⁻¹.

B23: LH98L (scFv)
scFv: B1 scFv with H98L, F182G
notes: AS170036 VL1VH1 scFv mutein
Work on B23 yielded an Affinity increase [3] of 1.2 fold, an Affinity increase [4] of 1.2 fold and a Kd [5] of 200 nM. It also gave a Kd [6] of 200 nM.

B24: AS170036 VL1VH1-VHG108A (scFv)
scFv: B1 scFv with F182G, G234A
B24 showed an Affinity increase [1] of 5.5 fold, a Kd [2] of 42 nM and a koff [2] of 0.012 s⁻¹. It also gave a kon [2] of 290000 M⁻¹ s⁻¹.

B25: LY93V (scFv)
scFv: B1 scFv with Y93V, F182G
notes: AS170036 VL1VH1 scFv mutein
Binder B25 has an Affinity increase [3] of 0.5 fold, an Affinity increase [4] of 0.5 fold and a Kd [5] of 450 nM. The Kd [6] was 450 nM.

B26: LH98I (scFv)
scFv: B1 scFv with H98I, F182G
notes: AS170036 VL1VH1 scFv mutein; also called AS170036 VL1VH1-VLH98I
For B26, the Affinity increase [3] was 3.1 fold, the Affinity increase [4] was 3.1 fold and the Kd [5] was 78 nM. For the same binder, the Kd [6] was 78 nM.

B27: LY93L (scFv)
scFv: B1 scFv with Y93L, F182G
notes: AS170036 VL1VH1 scFv mutein
B27 gave an Affinity increase [3] of 1.3 fold, an Affinity increase [4] of 1.3 fold and a Kd [5] of 180 nM. The Kd [6] was 180 nM.

B28: LH98Q (scFv)
scFv: B1 scFv with H98Q, F182G
notes: AS170036 VL1VH1 scFv mutein; also called AS170036 VL1VH1-VLH98Q
With B28 the Affinity increase [3] was 3.3 fold, the Affinity increase [4] was 3.3 fold and the Kd [5] was 75 nM. It also gave a Kd [6] of 75 nM.

B29: LH98N (scFv)
scFv: B1 scFv with H98N, F182G
notes: AS170036 VL1VH1 scFv mutein
With B29 the Affinity increase [3] was 1.5 fold, the Affinity increase [4] was 1.5 fold and the Kd [5] was 160 nM. For the same binder, the Kd [6] was 160 nM.

B30: LY93F (scFv)
scFv: B1 scFv with Y93F, F182G
notes: AS170036 VL1VH1 scFv mutein
With B30 the Affinity increase [3] was 1.8 fold, the Affinity increase [4] was 1.8 fold and the Kd [5] was 140 nM. The Kd [6] was 140 nM.

B31: AS170036 VL1VH1-VHG56N (scFv)
scFv: B1 scFv with F182N
B31 was tested, and the Affinity increase [1] was 2.5 fold, the Kd [2] was 92 nM and the koff [2] was 0.025 s⁻¹. It also gave a kon [2] of 270000 M⁻¹ s⁻¹.

B32: LY34H (scFv)
scFv: B1 scFv with Y34H, F182G
notes: AS170036 VL1VH1 scFv mutein
B32 gave an Affinity increase [3] of 0.5 fold, an Affinity increase [4] of 0.5 fold and a Kd [5] of 540 nM. The Kd [6] was 540 nM.

B33: LY34W (scFv)
scFv: B1 scFv with Y34W, F182G
notes: AS170036 VL1VH1 scFv mutein
With B33 the Affinity increase [3] was 0.6 fold, the Affinity increase [4] was 0.6 fold and the Kd [5] was 410 nM. For the same binder, the Kd [6] was 410 nM.

B34: AS170036 VL1VH1-VHS57K (scFv)
scFv: B1 scFv with F182G, S183K
B34 gave an Affinity increase [1] of 4.4 fold, a Kd [2] of 56 nM and a koff [2] of 0.0081 s⁻¹. For the same binder, the kon [2] was 150000 M⁻¹ s⁻¹.

B35: LH98Y (scFv)
scFv: B1 scFv with H98Y, F182G
notes: AS170036 VL1VH1 scFv mutein
Work on B35 yielded an Affinity increase [3] of 1.6 fold, an Affinity increase [4] of 1.6 fold and a Kd [5] of 160 nM. It also gave a Kd [6] of 160 nM.

B36: AS170036 VL1VH1-VHG108E (scFv)
scFv: B1 scFv with F182G, G234E
In the case of B36, the Affinity increase [1] is reported as 4.1 fold, the Kd [2] is reported as 56 nM and the koff [2] is reported as 0.02 s⁻¹. For the same binder, the kon [2] was 350000 M⁻¹ s⁻¹.

B37: LH98W (scFv)
scFv: B1 scFv with H98W, F182G
notes: AS170036 VL1VH1 scFv mutein
B37 gave an Affinity increase [3] of 1.2 fold, an Affinity increase [4] of 1.2 fold and a Kd [5] of 200 nM. The Kd [6] was 200 nM.

B38: LY93W (scFv)
scFv: B1 scFv with Y93W, F182G
notes: AS170036 VL1VH1 scFv mutein
In the case of B38, the Affinity increase [3] is reported as 1 fold, the Affinity increase [4] is reported as 1 fold and the Kd [5] is reported as 240 nM. For the same binder, the Kd [6] was 240 nM.
